Test results as given in patent US20210079080A1 (Hoffmann-La Roche, published 2021).

T1: VEGF-121-His (inhouse production) (human, UniProt P15692 207-395)
T1 construct: His-tagged human VEGF-A121 used in the ELISAs and (captured by an anti-His antibody) in SPR; also called hVEGF-A121; his VEGF; not shown: His tag
T1 sequence: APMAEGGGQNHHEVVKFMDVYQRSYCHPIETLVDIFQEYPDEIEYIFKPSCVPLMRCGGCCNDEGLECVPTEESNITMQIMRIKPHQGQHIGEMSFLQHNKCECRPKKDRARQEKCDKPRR

T2: human VEGF-A121 (human, UniProt P15692 207-395)
T2 sequence: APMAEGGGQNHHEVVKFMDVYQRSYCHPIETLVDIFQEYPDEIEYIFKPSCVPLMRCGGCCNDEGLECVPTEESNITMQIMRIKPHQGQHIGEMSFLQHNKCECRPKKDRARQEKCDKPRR


Key:
[1] = target: T1, VEGF-121-His (inhouse production); test: Biacore, Fab stressed 2 w/40° C./pH 6.0
Protocol: (§1) Antibody samples were formulated in 20 mM His/HisCl, 140 mM NaCl, pH 6.0, and were split into three aliquots: one aliquot was re-buffered into PBS, respectively, and two aliquots were kept in the original formulation. The PBS aliquot and one His/HisCl aliquot were incubated for 2 weeks (2 w) at 40° C. (His/NaCl) or 37° C. (PBS) in 1 mg/ml, the PBS sample was incubated further for total 4 weeks (4 w). The third control aliquot sample was stored at −80° C.

[2] = target: T1, VEGF-121-His (inhouse production); test: SPR (Biacore), hVEGF-A121 captured by anti-His antibody, Fab injected, 25° C
Protocol: (§2) The surface was regenerated by injecting 10 mM Glycine pH 1.5 for 60s. […] Rate constants were calculated using the Langmuir 1:1 binding model within the Biacore® Evaluation software.
(§3) The affinity of the antibodies was determined by SPR using the same methods as described in Example 2. All Fab fragments of antibodies of the invention as listed in table 1 and table 5 were tested.

[3] = target: T1, VEGF-121-His (inhouse production); test: SPR (Biacore), hVEGF-A121 captured by anti-His antibody, Fab injected, 37° C
Protocol: as §2, §3

[4] = target: T1, VEGF-121-His (inhouse production); test: direct ELISA on plate-coated VEGF-121-His
Protocol: After washing 3 times with 90 μl/well PBST-buffer (bidest water, 10×PBS Roche #11666789001+0.1% Tween® 20) blocking buffer (bidest water, 10×PBS Roche #11666789001+2% Bovine Serum Albumin Fraction V, fatty acid free, Roche, #10735078001+0.05% Tween® 20) was added 90 μl/well and incubated for 1 h at room temperature. […] After incubation for 1 h at room temperature, plates were again washed 3 times with 90 μl/well PBST-buffer. […] After washing 3 times with 90 μl A PBST-buffer, 25 μl TMB (Roche, #11 835 033 001) was added to each well. After 3 min incubation at RT, signals were detected at 370 nm/492 nm on a Tecan Safire 2 Reader.

[5] = target: T1, VEGF-121-His (inhouse production); test: Biacore, Fab stressed 4 w/37° C./pH 7.4
Protocol: as §1

human VEGF-A121 = target: T2, human VEGF-A121; test: cell-based or functional assay
[6] = target: T1, VEGF-121-His (inhouse production); test: Biacore, Fab stressed 2 w/37° C./pH 7.4
Protocol: as §1

[7] = target: T1, VEGF-121-His (inhouse production); test: inhibition ELISA: antibody titrated against 0.7 nM VEGF-121-His; blocked partner plate-bound biotinylated VEGF-R2; anti-His POD readout
Protocol: Plates were incubated for 1 h at room temperature. […] Plates were incubated for 1 h at room temperature. […] After washing 3 times with 90 μl/well PB ST-buffer, 25 μl/well detection antibody (anti His POD, Bethyl, #A190-114P, 1:12000) in 1×OSEP was added. After incubation for 1 h at room temperature plates were washed 3 times with 90 μl PBST-buffer. 25 μl TMB (Roche, #11 835 033 001) was added to all wells simultaneously. After 10 min incubation at room temperature, signals were detected at 370 nm/492 nm on a Tecan Safire 2 Reader.

[8] = target: T1, VEGF-121-His (inhouse production); test: SPR (Biacore), hVEGF-A121 captured by anti-His antibody, Fab injected, 37° C; remark: listed apart in the source
Protocol: as §2
(§4) The affinity of the antibodies was determined by SPR using the same methods as described in Example 2. All Fab fragments as listed in table 1 and table 2 were tested.

[9] = target: T1, VEGF-121-His (inhouse production); test: SPR (Biacore), hVEGF-A121 captured by anti-His antibody, Fab injected, 25° C; remark: listed apart in the source
Protocol: as §2, §4

[10] = target: T1, VEGF-121-His (inhouse production); test: inhibition ELISA: antibody titrated against 0.4 nM VEGF-121-His; blocked partner plate-bound biotinylated VEGF-R2; anti-His POD readout
[11] = target: T1, VEGF-121-His (inhouse production); test: inhibition ELISA: antibody titrated against 0.7 nM VEGF-121-His; blocked partner plate-bound biotinylated VEGF-R1; anti-His POD readout

Row | Binder | VEGF-binding activity after stress (relative active concentration, normalized to unstressed aliquot) [1] | Kd [2] [nM] | Kd [3] [nM] | VEGF-binding activity after stress (relative active concentration, normalized to unstressed aliquot) [5] | VEGF-binding activity after stress (relative active concentration, normalized to unstressed aliquot) [6] | other results
1 | VEGF-0113 Fab fragment (Fab, V domains shown, Variant of VEGF-0089 (G to P at position 6 of H-CDR2); Fab with rabbit derived CLkappa and CH1) VH: EVQLVESGGGLVQPGGSLRLSCAASGFTFTNYAMTWVRQAPGKGLEWVSSIGNGPGIYTYYADSVKGRFTISRDNSKNTLYLQMNSLRAEDTAVYYCAKGDNLFDSWGPGTLVTVSS VL: DIQMTQSPASLSASVGDRVTITCRASQSIYSSLNWYQQKPGKAPKLLIYASTLQSGVPSRFSGSASGTDFTLTISSLQPEDVATYYCQQYQNFPRTFGQGTKLEIKR | 103 | 0.022 | 0.029 | 101 | 103 | EC50 (read off the curve) [4]: ~0.3 nM; IC50 in reporter gene assay (HEK293-NFAT-RE-Luc2P/KDR cells, luminescence, 25 ng/ml VEGF-A121) (human VEGF-A121): 0.63 nM; IC50 (read off the curve) [7]: ~2 nM; Kd [8]: 0.017 nM; Kd [9]: 0.021 nM; IC50 (read off the curve) [10]: ~0.2 nM
2 | VEGF-0114 Fab fragment (Fab, V domains shown, Fab with rabbit derived CLkappa and CH1; also called VEGR-0114 Fab) VH: EVQLVESGGGLVQPGGSLRLSCAASGFTFTNYAMTWVRQAPGKGLEWVSSIGSGGFYTYYADSVKGRFTISRDNSKNTLYLQMNSLRAEDTAVYYCAKGDNLFDSWGPGTLVTVSS VL: DIQMTQSPASLSASVGDRVTITCRASQSIYSSLNWYQQKPGKAPKLLIYASTLQSGVPSRFSGSASGTDFTLTISSLQPEDVATYYCQQYQNFPRTFGQGTKLEIKR | 99 | 0.05 | 0.054 | 99 | 102 | EC50 (read off the curve) [4]: ~0.3 nM; IC50 in reporter gene assay (HEK293-NFAT-RE-Luc2P/KDR cells, luminescence, 25 ng/ml VEGF-A121) (human VEGF-A121): 1.34 nM; Kd [8]: 0.056 nM; Kd [9]: 0.055 nM; IC50 (read off the curve) [10]: ~0.3 nM
3 | VEGF-P1AD8675 Fab fragment (Fab, V domains shown) VH: EVQLVESGGGLVQPGGSLRLSCAASGFTFTNYAMTWVRQAPGKGLEWVSSIGNGGGIYTYYADSVKGRFTISRDNWKNTLYLQMNSLRAEDTAVYYCAKGDNLFDSWGPGTLVTVSS VL: DIQMTQSPASLSASVGDRVTITCRASQSIYSSLNWYQQKPGKAPKLLIYASTLQSGVPSRFSGSASGTDFTLTISSLQPEDVATYYCQQYQNFPRTFGQGTKLEIKR | 101 | 0.088 | 0.065 | 109 | 102 | 
4 | VEGF-P1AE3521 Fab fragment (Fab, V domains shown) VH: EVQLVESGGGLVQPGGSLRLSCAASGFTFTNYAMTWVRQAPGKGLEWVSSIGSGGFYTYYADSVKGRFTISRDNWKNTLYLQMNSLRAEDTAVYYCAKGDNLFDSWGPGTLVTVSS VL: DIQMTQSPASLSASVGDRVTITCRASQSIYSSLNWYQQKPGKAPKLLIYASTLQSGVPSRFSGSASGTDFTLTISSLQPEDVATYYCQQYQNFPRTFGQGTKLEIKR | 101 | 0.032 | 0.061 | 99 | 103 | 
5 | VEGF-P1AE3520 Fab fragment (Fab, V domains shown) VH: EVQLVESGGGLVQPGGSLRLSCAASGFTFTNYAMTWVRQAPGKGLEWVSSIGNGPGIYTYYADSVKGRFTISRDNWKNTLYLQMNSLRAEDTAVYYCAKGDNLFDSWGPGTLVTVSS VL: DIQMTQSPASLSASVGDRVTITCRASQSIYSSLNWYQQKPGKAPKLLIYASTLQSGVPSRFSGSASGTDFTLTISSLQPEDVATYYCQQYQNFPRTFGQGTKLEIKR | 100 | 0.031 | 0.039 | 101 | 102 | 
6 | HF2-1 Fab fragment (Fab, V domains shown, Prior art antibody disclosed in EP3006465) VH: EVQLVESGGGLVQPGGSLRLSCAASNFVFRSHGMQWVRQAPGKGLEYVAGISSDGSWTGYGAAVEGRFTISRDDSKNTAYLQMNSLRAEDTAVYYCARDFSTGYGADSIDAWGQGTLVTVSS VL: DIQMTQSPSSLSASVGDRVTITCSGGSDSAYGYGWYQQKPGKAPKTLIYWDDKRPSGVPSRFSGSRSGTDFTLTISSLQPEDFATYYCGAWEYSGGVGIFGQGTKVEIKR |  | 0.279 | 0.574 |  |  | 
7 | HF2-11 Fab fragment (Fab, V domains shown, Prior art antibody disclosed in EP3006465) VH: EVQLVESGGGLVQPGGSLRLSCAASGFLIRSHGMQWVRQAPGKGLEYVAGISSDGSWVKVAAAVEGRFTISRDDSKNTAYLQMNSLRAEDTAVYYCARDFSTGYGADSIDAWGQGTLVTVSS VL: DIQMTQSPSSLSASVGDRVTITCSGGSSEPLGYGWYQQKPGKAPKTLIYWDDKRPSGVPSRFSGSRSGTDFTLTISSLQPEDFATYYCGAWEYSGGVGIFGQGTKVEIKR |  | 0.032 | 0.062 |  |  | IC50 (read off the curve) [11]: ~1 nM
8 | HF2-9 Fab fragment (Fab, V domains shown, Prior art antibody disclosed in EP3006465) VH: EVQLVESGGGLVQPGGSLRLSCAASMFRIRSHGMQWVRQAPGKGLEYVAGISSDGSWFRVAAAVEGRFTISRDDSKNTAYLQMNSLRAEDTAVYYCARDFSTGYGADSIDAWGQGTLVTVSS VL: DIQMTQSPSSLSASVGDRVTITCSGGSMEPLGYGWYQQKPGKAPKTLIYWDDKRPSGVPSRFSGSRSGTDFTLTISSLQPEDFATYYCGAWEYSGGVGIFGQGTKVEIKR |  | 0.024 | 0.051 |  |  | IC50 (read off the curve) [11]: ~0.7 nM
9 | r84 full length IgG1 antibody (antibody, V domains shown, Full length IgG1; also called r84 IgG1) VH: QVQLVQSGAEVKKPGASVKVSCKASGGTFSSYAISWVRQAPGQGLEWMGGFDPEDGETIYAQKFQGRVTMTEDTSTDTAYMELSSLRSEDTAVYYCATGRSMVRGVIIPFNGMDVWGQGTTVTVSS VL: not shown |  |  |  |  |  | binding result [4]: binds
10 | r84 Fab fragment (Fab, V domains shown, Prior art antibody disclosed in WO 2009060198, made here as Fab) VH: QVQLVQSGAEVKKPGASVKVSCKASGGTFSSYAISWVRQAPGQGLEWMGGFDPEDGETIYAQKFQGRVTMTEDTSTDTAYMELSSLRSEDTAVYYCATGRSMVRGVIIPFNGMDVWGQGTTVTVSS VL: not shown |  |  |  |  |  | binding result [4]: binds
11 | L3H6 Fab fragment (Fab, V domains shown, Prior art antibody disclosed in WO 2012089176, made here as Fab) VH: QVQLVQSGAEVKKPGESLKISCKGSGYSFTSYWIGWVRQMPGKGLEWMGIIYPGDSDTRYSPSFQGQVTISADKSISTAYLQWSSLKASDTAMYYCARQGTHNRKIWGQGTMVTVSS VL: QAVVTQEPSLTVSPGGTVTLTCASSTGAVTSGNYPNWFQQRPGQPPRALIYSTSNKHSWTPARFSGSLLGGKAALTLSGAQPEDEAEYYCRLSYDLARPVFGGGTKLTVLG |  |  |  |  |  | EC50 (read off the curve) [4]: ~0.3 nM; Kd [8]: 4.52 nM; Kd [9]: 3.36 nM
